Consider six molecules from paper doi:10.64898/2025.12.08.692997 (bioRxiv, 2025).

Where two headings read alike, the source gives them in different places.

In assay [1] the target is Rat EphB1-Fc ectodomain (rat) (UniProt P09759). Put plainly: AlphaScreen or HTRF. Background: In Alpha technology, singlet oxygen from a donor bead excites a nearby acceptor bead.
Assay [2] shares this target. Put plainly: BLI. (In general: In BLI a coated tip is dipped into the sample, and binding shifts an interference pattern.)
Assay [3] addresses Mouse EphrinB2-His ectodomain (mouse) (UniProt P52800). Put plainly: mass photometry.
Assay [4] deals with T1, Human EphB1-His ectodomain (human, UniProt P54762 18-540).
T1 sequence: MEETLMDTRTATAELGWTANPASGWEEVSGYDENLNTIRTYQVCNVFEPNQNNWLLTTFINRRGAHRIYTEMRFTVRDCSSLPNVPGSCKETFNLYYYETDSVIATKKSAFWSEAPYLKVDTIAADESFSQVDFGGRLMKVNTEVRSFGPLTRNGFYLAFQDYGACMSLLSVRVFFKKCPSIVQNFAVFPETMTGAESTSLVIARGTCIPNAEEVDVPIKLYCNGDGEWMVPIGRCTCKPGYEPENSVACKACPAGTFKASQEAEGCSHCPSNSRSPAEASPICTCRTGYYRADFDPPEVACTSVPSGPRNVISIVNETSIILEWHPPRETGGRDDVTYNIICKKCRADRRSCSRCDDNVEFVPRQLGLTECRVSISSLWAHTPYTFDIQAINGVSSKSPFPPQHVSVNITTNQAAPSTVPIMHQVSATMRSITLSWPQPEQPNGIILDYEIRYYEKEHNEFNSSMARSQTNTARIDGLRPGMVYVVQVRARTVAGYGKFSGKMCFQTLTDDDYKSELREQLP
Put plainly: BLI.

The target of assay [5] is T2, Human EphB4-His ectodomain (human, UniProt P54760 16-539).
T2 sequence: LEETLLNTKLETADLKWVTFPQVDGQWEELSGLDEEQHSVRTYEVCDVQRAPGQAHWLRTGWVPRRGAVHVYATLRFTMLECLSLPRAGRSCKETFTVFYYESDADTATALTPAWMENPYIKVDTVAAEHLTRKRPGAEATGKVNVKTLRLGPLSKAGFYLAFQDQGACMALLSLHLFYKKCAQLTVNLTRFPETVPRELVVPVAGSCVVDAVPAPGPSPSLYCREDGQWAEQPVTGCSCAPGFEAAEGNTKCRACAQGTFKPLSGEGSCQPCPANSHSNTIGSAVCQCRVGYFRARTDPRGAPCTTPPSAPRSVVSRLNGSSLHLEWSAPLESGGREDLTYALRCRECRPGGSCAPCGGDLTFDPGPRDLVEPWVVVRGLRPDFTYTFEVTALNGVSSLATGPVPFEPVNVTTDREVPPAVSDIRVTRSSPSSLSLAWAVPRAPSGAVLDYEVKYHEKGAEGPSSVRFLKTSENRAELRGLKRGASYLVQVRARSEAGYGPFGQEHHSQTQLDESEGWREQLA
Put plainly: BLI.

For assay [6], the target named is T3, Human EphB2-His ectodomain (human, UniProt P29323 19-543).
T3 sequence: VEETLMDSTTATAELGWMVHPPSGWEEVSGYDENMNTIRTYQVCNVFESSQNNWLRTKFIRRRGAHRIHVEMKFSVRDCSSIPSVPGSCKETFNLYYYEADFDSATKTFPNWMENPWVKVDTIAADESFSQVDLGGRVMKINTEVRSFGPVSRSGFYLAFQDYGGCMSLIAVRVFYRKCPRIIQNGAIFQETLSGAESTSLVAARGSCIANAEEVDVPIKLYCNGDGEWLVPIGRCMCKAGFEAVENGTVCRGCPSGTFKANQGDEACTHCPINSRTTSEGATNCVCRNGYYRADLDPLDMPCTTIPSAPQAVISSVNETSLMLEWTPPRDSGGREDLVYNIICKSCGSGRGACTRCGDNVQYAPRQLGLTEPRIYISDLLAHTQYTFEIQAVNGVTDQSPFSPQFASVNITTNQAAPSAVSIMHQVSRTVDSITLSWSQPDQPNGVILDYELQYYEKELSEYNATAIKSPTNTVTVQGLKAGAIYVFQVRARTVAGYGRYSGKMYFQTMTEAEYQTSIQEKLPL
Kind of assay: BLI.

Assay [7] deals with T3, Human EphB2-His ectodomain. Put plainly: BLI. The source holds these as a separate data set.
Assay [8] deals with T4, Human EphB2-His ectodomain (human), P29323.
T4 chain: T3 sequence
Put plainly: mass photometry. The settings on record: remark: other sources report otherwise.

The IC50 is the midpoint of a concentration-inhibition curve. On to “soluble Reelin protein (from UniProt Q60841 27-3461) (natural protein)”, for which the IC50 in assay [1] turned out to be 0.05 µM. That is a double-digit nanomolar value.
Usually stoichiometry N stands for the number of molecules, sites or subunits per partner or assembly. In assay [2], “Mouse EphrinB2-His ectodomain (from UniProt P52800 29-232) (domain or fragment)” registered a KD1 (2:1 heterologous interaction model) below 1 pM and a KD2 (dimer formation, 2:1 model) of 39.7 nM. Further, the stoichiometry N in assay [3] is 2.

B1: Human EphrinB2-Fc ectodomain (Fc fusion)
chain: IVLEPIYWNSSNSKFLPGQGLVLYPQIGDKLDIICPKVDSKTVGQYEYYKVYMVDKDQADRCTIKKENTPLLNCAKPDQDIKFTIKFQEFSPNLWGLEFQKNKDYYIISTSNGSLEGLDNQEGGVCQTRAMKILMKVGQDASSAGSTRNKDPTRRPELEAGTNGRSSTTSPFVKPNPGSSTDGNSAGHSGNNILGSEVALFA
For the molecule B1, the binding result in assay [4], in assay [5] and in assay [6] was “binds” each time.

B2: Human EphrinB1-Fc ectodomain (Fc fusion)
chain: LAKNLEPVSWSSLNPKFLSGKGLVIYPKIGDKLDIICPRAEAGRPYEYYKLYLVRPEQAAACSTVLDPNVLVTCNRPEQEIRFTIKFQEFSPNYMGLEFKKHHDYYITSTSNGSLEGLENREGGVCRTRTMKIIMKVGQDPNAVTPEQLTTSRPSKEADNTVKMATQAPGSRGSLGDSDGKHETVNQEEKSGPGASGGSSGDPDGFFNS
B2: the binding result in assay [4] and in assay [7] was “binds” each time.

B3: Human EphrinB3-Fc ectodomain (Fc fusion)
chain: LSLEPVYWNSANKRFQAEGGYVLYPQIGDRLDLLCPRARPPGPHSSPNYEFYKLYLVGGAQGRRCEAPPAPNLLLTCDRPDLDLRFTIKFQEYSPNLWGHEFRSHHDYYIIATSDGTREGLESLQGGVCLTRGMKVLLRVGQSPRGGAVPRKPVSEMPMERDRGAAHSLEPGKENLPGDPTSNATSRGAEGPLPPPS
As for B3, the binding result in assay [4] and in assay [7] was “binds” each time.

B4: Human EphB2-His ectodomain, P29323 19-543 (domain or fragment)
chain: T3 sequence
In the case of B4, the stoichiometry N in assay [8] was found to be 2.
